The values below come from patent US6642007 (Pfizer, dated 2003).

Changes are numbered by the printed parent chain. No end group written: not given here. *: point of attachment. Biotin = O=C1N[C@H]2[C@H](CS[C@H]2CCCCC(=O)*)N1

T1: biotinylated peptide 225 (SEQ ID NO: 64) (biotinylated (position not given))
T1 construct: Collagen-related peptide fragment on streptavidin magnetic beads
T1 peptide: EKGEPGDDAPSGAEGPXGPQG

T2: biotinylated peptide of SEQ ID NO: 19
T2 construct: Captured on a streptavidin biosensor chip; also called biotinylated peptide 054
T2 peptide: Biotin-GEPGDDGPS

T3: biotinylated peptide Bt-AEGPPGPQG (SEQ ID NO: 14)
T3 construct: also called biotinylated peptide 040; peptide 040
T3 peptide: Biotin-AEGPPGPQG

B1: monoclonal antibody 5109 (antibody, V domains shown)
VH: EVQLVESGGGSVQPGGSLKLSCAASGFTFNTYGMSWVRQTPDKRLEWVATINSNGGLTFYADSVKGRFTISRDNAKNTLYLQMNRLKSGDSGMYYCVRGYSNYARWGQGALVTVSA
VL: DVVMTQTPLTLSVTIGQSASISCKSSQSLLGSDGLTYLIWLLQRPGQSPKRLIFLVSELDSGVPDRFTGSGSGTDFTLKISRVEAEDLGVYYCCQGTHFPHTFGAGTKLELK
B2: 9A4 scFv (VL-linker-VH-FLAG tag) from p9A4IF-5 (scFv)
scFv: QIVLTQSPVFMSASPGEKVTMTCSASSSVSYMYWYQQKPGSSPRLLIHATSNLASGVPVRFSGGGSGTSYSLTISRMEAEDAATYYCQQWRSYTRTFGGGTKLEIILSADDAKKDAAKKDDAKKDDAKKDLEIQLVQSGPELKKPGETVKISCKASGYTFTDYSIHWVKQAPGKGLKWMGWINTETGEPTYADDFKGRFAFSLETSASTAYLQINNLKNEDTATYFCARGGSLDYWGQGTTLTVSSASDYKDDDDK
notes: Monomer purified from E. coli; also called 9A4IF-5 scFv; p9A4lF-5
B3: 9A4 scFv (VH-linker-VL-HIS-MYC tags) from p9A4ICAT7-1 (scFv)
scFv: QIQLVQSGPELKKPGETVKISCKASGYTFTDYSIHWVKQAPGKGLKWMGWINTETGEPTYADDFKGRFAFSLETSASTAYLQINNLKNEDTATYFCARGGSLDYWGQGTTLTVSSGGGGSGGGGSGGGGSQIVLTQSPVFMSASPGEKVTMTCSASSSVSYMYWYQQKPGSSPRLLIHATSNLASGVPVRFSGGGSGTSYSLTISRMEAEDAATYYCQQWRSYTRTFGGGTKLEIIAAAHHHHHHGAAEQKLISEEDLNGAA
notes: Monomer purified from E. coli TG1; also called 9A4ICAT7-1 scFv; p9A4lCAT7-1
B4: 9A4 scFv CDR3 VH mutant clone 8D (scFv)
scFv: B3 scFv with Y104N
notes: Derived from p9A4ICAT7-1
B5: 9A4 scFv CDR3 VH mutant clone 24A (scFv)
scFv: B3 scFv with A97G, D103E
notes: Derived from p9A4ICAT7-1
B6: 9A4 scFv CDR3 VH mutant clone 13G (scFv)
scFv: B3 scFv with A97G, Y104N
notes: Derived from p9A4ICAT7-1
B7: 9A4 scFv CDR3 VH mutant clone 15A (scFv)
scFv: B3 scFv with S101R
notes: Derived from p9A4ICAT7-1
B8: 9A4 scFv CDR3 VH mutant clone 38B (scFv)
scFv: B3 scFv with A97G, Y104S, W105C
notes: Derived from p9A4ICAT7-1
B9: 9A4 scFv CDR3 VH mutant clone 20B (scFv)
scFv: B3 scFv with A97G, S101N, Y104H, W105C
notes: Derived from p9A4ICAT7-1
B10: 9A4 scFv CDR3 VH mutant clone 10C (scFv)
scFv: B3 scFv with A97G, W105C
notes: Derived from p9A4ICAT7-1
B11: 9A4 scFv CDR3 VH mutant clone 5C (scFv)
scFv: B3 scFv with Y104S
notes: Derived from p9A4ICAT7-1
B12: 9A4 scFv CDR3 VH mutant clone 14B (scFv)
scFv: B3 scFv with Y104H
notes: Derived from p9A4ICAT7-1
B13: 9A4 scFv CDR3 VH mutant clone 18E (scFv)
scFv: B3 scFv with Y104V
notes: Derived from p9A4ICAT7-1
B14: monoclonal antibody 9A4 (antibody, V domains shown)
VH: QIQLVQSGPELKKPGETVKISCKASGYTFTDYSIHWVKQAPGKGLKWMGWINTETGEPTYADDFKGRFAFSLETSASTAYLQINNLKNEDTATYFCARGGSLDYWGQGTTLTVSS
VL: QIVLTQSPVFMSASPGEKVTMTCSASSSVSYMYWYQQKPGSSPRLLIHATSNLASGVPVRFSGGGSGTSYSLTISRMEAEDAATYYCQQWRSYTRTFGGGTKLEIIR
notes: also called mAb 9A4; 9A4 IgG

One assay concerns the target T1, biotinylated peptide 225 (SEQ ID NO: 64). Description: told in words beside the Origen result.
Regarding B1, the binding result was “binds”.

In another assay the target is T2, biotinylated peptide of SEQ ID NO: 19. As to the kind of experiment: ELISA-positive hybridoma supernatant, BIAcore over biotinylated peptide SEQ ID NO: 19 on streptavidin chip. As for the experimental part:
Positive wells were subjected to a second round of selection on the BlAcore™ system for those which had antibodies giving the slowest off-rates. Streptavidin (Pierce Chemical) at 100 µg/ml was conjugated using the Pharmacia Amine Coupling Kit (Pharmacia Biosensor) to carboxylated dextran coated biosensor chips (Pharmacia Biosensor) at pH 4.0 using a flow rate of 5 µl/minute for 35 minutes. Typically, 2000 RU was added. Peptide (100 ng/ml), biotinylated on residue 1 of SEQ ID NO: 19 as set forth in the Sequence Listing, was passed over the streptavidin chip at a flow rate of 100 µl/minute for 10 seconds. Supernatants containing antibody were passed over the chip (2 µl/minute for 30 seconds) and the amount of added antibody noted. The buffer was changed to HBS (Pharmacia Biosensor), and the dissociation rate noted for the next 80 seconds. The chip was cleaned with 0.1 N HCl for 30 seconds between each run to remove antibody and to get rid of any nonspecific binding. The off-rates were determined using the BlAevaluation™ software version 2.1.
As to B1, the binding result is on record as “binds”.

The target of the next assay is T3, biotinylated peptide Bt-AEGPPGPQG (SEQ …). Description: BIAcore, scFv over biotinylated peptide SEQ ID NO: 14 on streptavidin chip, dissociation 280 s. On the procedure: Off-rates for the scFv constructs were measured by analysis of dissociation data obtained on the BlAcore™ system (Pharmacia Biosensor) with BlAevaluation™ version 2.1 software. To obtain the data on the BlAcore™ system, streptavidin surfaces on the BlAcore™ chips were prepared as described previously in Example 1. Biotinylated peptide (SEQ ID NO: 14) was bound to the prepared streptavidin surfaces to RU densities ranging from about 2–11 RU's/surface. The lower level of derivatization would help avoid getting erroneous off-rates that could be obtained if mass transport was an issue. Purified scFv's were injected over these surfaces to allow binding of the constructs for 60 seconds. PBS buffer alone was then substituted and the dissociation of scFv was allowed to proceed for an additional 280 sec. Off-rates were calculated from these dissociation data.
(In SPR one partner is held on a chip, and binding of the other changes the refractive index at the surface.)
Usually koff stands for a measure of how fast the partners let go of each other. A higher koff goes with fast dissociation. In turn, B2 had a koff of 0.0048 s⁻¹.

The molecule B3 displayed a dissociation rate constant (koff) of 0.003 s⁻¹.

The molecule B4 had a koff of 0.0104 s⁻¹.

As to B5, the koff was determined as 0.0025 s⁻¹.

Take B6: the off-rate constant (koff) stood at 0.0103 s⁻¹.

Regarding B7, the off-rate constant (koff) is 0.0035 s⁻¹.

B8 had a koff of 0.0026 s⁻¹.

In turn, B9 came in with an off-rate (koff) of 0.0028 s⁻¹.

In turn, B10 gave an off-rate constant (koff) of 0.0094 s⁻¹.

Molecule B11 displayed an off-rate constant (koff) of 0.0025 s⁻¹.

Take B12: the koff was 0.0027 s⁻¹.

The molecule B13 yielded a koff of 0.014 s⁻¹.

For another assay the target is unchanged. As to the kind of experiment: BIAcore, biotinylated peptide SEQ ID NO: 14 on streptavidin chip. As for the experimental part:
Positive wells in the ELISA were subjected to a second round of selection on the BIAcore™ system. Wells were sought that produced antibodies having slow off rates on the BIAcore™ system as determined using BIAevaluation™ version 2.1 software (Pharmacia Biosensor, Piscataway, N.J.). Streptavidin (Pierce Chemical) at 100 μg/ml was conjugated using the Pharmacia Amine Coupling Kit (Pharmacia Biosensor) to carboxylated dextran-coated biosensor chips (Pharmacia Biosensor) at a pH 4.0 using a flow rate of 5 μl/minute for 35 minutes. Typically, 2000 RU was added. Peptide (100 ng/ml) biotinylated on residue of 1 of SEQ ID NO: 14 as set forth in the Sequence Listing, was passed over the streptavidin chip at a flow rate of 100 μl/minute for 10 seconds. Candidate supernatants containing antibody were passed over the chip (2 μl/minute for 30 seconds) and the amount of added antibody noted. The buffer was changed to HBS (HEPES buffered saline, Pharmacia Biosensor), and the dissociation rate noted for the next 80 seconds. The chip was cleaned with 0.1 N HCl for 30 seconds between each run to remove residual antibody and to clear any nonspecific binding. The off-rates were determined using BIAevaluation™ kinetic analysis software version 2.1. Clones with the slowest off rates were selected for further analysis. These clones included 9A4, 11F2, and 3H10.
Binding to antigen was evaluated on the BlAcore™ system for both the p9A4lCAT7-1 and p9A4lF-5 scFv purified gene products as follows. A streptavidin chip was loaded with biotinylated peptide of SEQ ID NO: 14 as given in Example 1 above.
In general, Kd refers to the equilibrium constant for the complex coming apart. The molecule B2 registered a dissociation constant Kd of 110 nM.

As to B3, the koff amounted to 0.0012 s⁻¹.

Turning to B14, the dissociation constant Kd came out at 120 nM and the koff is 0.0176 s⁻¹.
